Laboratory results published in patent US20240270846A1 (published 2024).
Where no end group is shown, it is not given here.

Key:
[1] = molecular target: human CD137 expressed on cells (human, UniProt Q07011 24-255); test: cell-based or functional assay
[2] = molecular target: T1, biotin-labeled cynomolgus monkey CD137 fused to human IgG1 Fc fragment (cynomolgus monkey, UniProt Q07011 24-186 (human entry), limits assumed, biotin-labeled); test: beads ELISA, biotin labeled cyno CD137-Fc
T1 construct: the assay used the fusion to human IgG1 Fc; also called cyno CD137-Fc
T1 chain: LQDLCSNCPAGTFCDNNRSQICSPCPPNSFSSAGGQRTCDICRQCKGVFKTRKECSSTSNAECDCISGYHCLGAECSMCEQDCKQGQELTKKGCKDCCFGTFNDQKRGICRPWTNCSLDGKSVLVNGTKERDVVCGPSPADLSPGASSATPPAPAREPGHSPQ
Description: First, 20 micro g of Streptavidin-coated magnetic beads MyOne-T1 beads was washed three-times with blocking buffer including 0.5× block Ace, 0.02% Tween and 0.05% ProClin 300 and then blocked with this blocking buffer at room temperature for 60 minutes or more. […] After that each well was washed with TBST. […] The plate was incubated for one hour. […] 2 minutes later the fluorescence of each well was detected.

recombinant human CD3 = molecular target: T2, recombinant human CD3 (human, UniProt P07766 23-126); test: SPR (Biacore T200, 37 degrees C), antibody captured by anti-human Fc, antigen as analyte, 1:1 model
T2 construct: also called hCD3
Description: (§1) Binding affinity of trispecific antibodies to human CD3 and CD137 were assessed at 37 degrees C. using Biacore T200 instrument (GE Healthcare). Anti-human Fc antibody (GE Healthcare) was immobilized onto all flow cells of a CM4 sensor chip using amine coupling kit (GE Healthcare). Antibodies were captured onto the anti-Fc sensor surfaces, then recombinant human CD3 or CD137 was injected over the flow cell. All antibodies and analytes were prepared in ACES pH 7.4 containing 20 mM ACES, 150 mM NaCl, 0.05% Tween 20, 0.005% NaN3. Sensor surface was regenerated each cycle with 3M MgCl2.

recombinant human CD137 = molecular target: T3, recombinant human CD137 (human, UniProt Q07011 24-186); test: as above
T3 construct: also called hCD137
Description: as §1

[3] = molecular target: T4, CD3 epsilon peptide antigen (human, also: biotin-labeled as coated antigen, free as competitor, biotin position not given here); test: ECL, IgG with biotinylated antigen
T4 construct: also called biotin-labeled CD3 epsilon peptide; CD3 peptide
T4 peptide: QDGNEEMGGITQTPY

[4] = molecular target: T5, biotin-labeled human CD137 fused to human IgG1 Fc fragment (human, biotin-labeled); test: ECL, IgG with biotinylated antigen
T5 construct: also called human CD137-Fc; biotin-human CD137-Fc
Description: Antigen binding of each molecule was tested by the electrochemiluminescence method (ECL method). […] A TBST solution containing 0.5% BSA was added at 150 micro L/well to streptavidin plate (MSD K. K., L15SA-1), and the plate was incubated overnight at 4 degrees C. After removal of the blocking solution, each well was washed three times with 250 micro L of a TBST solution.

[5] = molecular target: T4, CD3 epsilon peptide antigen; test: ELISA, IgG supernatant, biotinylated antigen on streptavidin plate

T2 sequence (P07766 23-126): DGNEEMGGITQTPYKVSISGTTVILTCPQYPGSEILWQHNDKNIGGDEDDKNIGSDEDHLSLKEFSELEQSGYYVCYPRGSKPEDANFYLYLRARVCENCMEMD
T3 sequence (Q07011 24-186 limits assumed): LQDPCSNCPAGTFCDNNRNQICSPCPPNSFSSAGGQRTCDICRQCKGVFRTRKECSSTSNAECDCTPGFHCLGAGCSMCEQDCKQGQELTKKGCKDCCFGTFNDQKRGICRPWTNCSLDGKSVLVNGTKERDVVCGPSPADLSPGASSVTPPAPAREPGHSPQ
Sequence of human CD137 expressed on cells (Q07011 24-255): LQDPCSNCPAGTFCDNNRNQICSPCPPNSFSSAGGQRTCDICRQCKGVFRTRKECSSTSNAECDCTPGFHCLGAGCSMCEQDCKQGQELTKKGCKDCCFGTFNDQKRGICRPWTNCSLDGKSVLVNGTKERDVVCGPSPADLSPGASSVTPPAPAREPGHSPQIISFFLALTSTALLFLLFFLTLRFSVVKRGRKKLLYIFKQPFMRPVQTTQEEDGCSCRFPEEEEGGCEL
T5 sequence (chain, as listed by the source limits assumed): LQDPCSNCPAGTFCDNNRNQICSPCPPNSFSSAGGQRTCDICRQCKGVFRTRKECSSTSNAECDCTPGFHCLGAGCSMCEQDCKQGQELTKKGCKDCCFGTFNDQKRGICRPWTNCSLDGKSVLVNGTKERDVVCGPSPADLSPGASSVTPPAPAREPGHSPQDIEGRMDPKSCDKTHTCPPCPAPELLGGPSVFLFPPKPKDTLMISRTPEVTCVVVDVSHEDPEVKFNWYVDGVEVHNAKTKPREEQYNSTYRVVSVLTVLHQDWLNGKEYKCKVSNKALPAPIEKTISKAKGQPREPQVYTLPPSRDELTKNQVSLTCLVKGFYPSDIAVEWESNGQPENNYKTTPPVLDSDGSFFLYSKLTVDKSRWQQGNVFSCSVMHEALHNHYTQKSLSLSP

B1: GPC3/CD137 × CD3 (other)
VH 1: QVQLQQWGAGLLKPSETLSLTCAVYGGSFSGYYWSWIRQSPEKGLEWIGEINHGGYVTYNPSLESRVTISVDTSKNQFSLKLSSVTAADTAVYYCARDYGPGNYDWYFDLWGRGTLVTVSS
VL 1: EIVLTQSPATLSLSPGERATLSCRASQSVSSYLAWYQQKPGQAPRLLIYDASNRATGIPARFSGSGSGTDFTLTISSLEPEDFAVYYCQQRSNWPPALTFGGGTKVEIK
VH 2: QVQLVESGGGLVQPGRSLRLSCAASGFTFSNAWMHWVRQAPGKGLEWVAQIKDRANSYNTYYAESVKGRFTISRDDSKNSIYLQMNSLKTEDTAVYYCRYVHYTTYAGSSFSYGVDAWGQGTTVTVSS
VL 2: DIVMTQSPLSLPVTPGEPASISCRSSQPLVHSNRNTYLHWYQQKPGQAPRLLIYKVSNRFSGVPDRFSGSGSGTDFTLKISRVEAEDVGVYYCGQGTQVPYTFGQGTKLEIK
VH 3: QVQLVQSGAEVKKPGASVTVSCKASGYTFTDYEMHWIRQPPGEGLEWIGAIDGPTPDTAYSEKFKGRVTLTADKSTSTAYMELSSLTSEDTAVYYCTRFYSYTYWGQGTLVTVSS
VL 3: DIVMTQSPLSLPVTPGEPASISCRSSQPLVHSNRNTYLHWYQQKPGQAPRLLIYKVSNRFSGVPDRFSGSGSGTDFTLKISRVEAEDVGVYYCGQGTQVPYTFGQGTKLEIK
Q: Which “Luminescence against CD137 positive cells relative to that against GPC3 positive cells, 1 nM” value [1] does the source give for B1 here?
A: ~107%

Q: And the “Luminescence against CD137 positive cells relative to that against GPC3 positive cells, 10 nM” value [1]?
A: ~128%

B2: DADU01_3 #001 (antibody, human IgG1, V domains shown)
VH: QVQLVESGGGLVQPGRSLRLSCAASGFTFSIAWMHWVRQAPGKGLEWVAQIKDRVNAYEAYYAPSVKGRFTISRDDSKNSIYLQMNSLKTEDTAVYYCRYVHYASYYDLLGYGGVDAWGQGTTVTVSS
VL: DIVMTQSPLSLPVTPGEPASISCRSSQSLVHSNRNTYLHWYQQKPGQAPRLLIYKVSNRFSGVPDRFSGSGSGTDFTLKISRVEAEDVGVYYCGQGTQVPYTFGQGTKLEIK
notes: VH in human IgG1 CH1-Fc plasmid; GLS3000 light chain; also called dBBDu_126; dBBDu126
Q: Does B2 bind [2]?
A: no binding (tested: 25 micro L of 50 ng/micro L purified IgG)

B3: GPC3/CD137xCD3 trispecific antibody (other)
VH 1: QVQLQQWGAGLLKPSETLSLTCAVYGGSFSGYYWSWIRQSPEKGLEWIGEINHGGYVTYNPSLESRVTISVDTSKNQFSLKLSSVTAADTAVYYCARDYGPGNYDWYFDLWGRGTLVTVSS
VL 1: EIVLTQSPATLSLSPGERATLSCRASQSVSSYLAWYQQKPGQAPRLLIYDASNRATGIPARFSGSGSGTDFTLTISSLEPEDFAVYYCQQRSNWPPALTFGGGTKVEIK
VH 2: QVQLVESGGGLVQPGRSLRLSCAASGFTFSNAWMHWVRQAPGKGLEWVAQIKDRANSYNTYYAESVKGRFTISRDDSKNSIYLQMNSLKTEDTAVYYCRYVHYTTYAGSSFSYGVDAWGQGTTVTVSS
VL 2: DIVMTQSPLSLPVTPGEPASISCRSSQPLVHSNRNTYLHWYQQKPGQAPRLLIYKVSNRFSGVPDRFSGSGSGTDFTLKISRVEAEDVGVYYCGQGTQVPYTFGQGTKLEIK
VH 3: QVQLVQSGAEVKKPGASVTVSCKASGYTFTDYEMHWIRQPPGEGLEWIGAIDGPTPDTAYSEKFKGRVTLTADKSTSTAYMELSSLTSEDTAVYYCTRFYSYTYWGQGTLVTVSS
VL 3: DIVMTQSPLSLPVTPGEPASISCRSSQPLVHSNRNTYLHWYQQKPGQAPRLLIYKVSNRFSGVPDRFSGSGSGTDFTLKISRVEAEDVGVYYCGQGTQVPYTFGQGTKLEIK
notes: Made by Fab-arm exchange of mAb A (CrossMab, each arm carrying Fv A1 and Fv A2) with mAb B (conventional IgG); Fc is Fc gamma R silent (L235R, G236R, S239K) and deglycosylated (N297A); also called GPC3/CD137 × CD3; anti-GPC3/CD137×CD3
Q: Which results are given for B3?
A: Kd (recombinant human CD3): 19.7 nM; koff (recombinant human CD3): 0.00161 s⁻¹; kon (recombinant human CD3): 81800 M⁻¹ s⁻¹; Kd (recombinant human CD137): 37.7 nM; koff (recombinant human CD137): 0.0206 s⁻¹; kon (recombinant human CD137): 547000 M⁻¹ s⁻¹

B4: dBBDu_011 (antibody, V domains shown)
VH: QVQLVESGGGLVQPGRSLRLSCAASGFTFSNAWMHWVRQAPGKGLEWVAQIKDKSSLYNTYYAPSVKGRFTISRDDSKNSIYLQMNSLKTEDTAVYYCRYVHYGASYGFLFAGYGVDAWGQGTTVTVSS
VL: DIVMTQSPLSLPVTPGEPASISCRSSQSLVHSNRNTYLHWYQQKPGQAPRLLIYKVSNRFSGVPDRFSGSGSGTDFTLKISRVEAEDVGVYYCGQGTQVPYTFGQGTKLEIK
notes: Converted to IgG: VH joined to human IgG1 constant domains; also called clone 011
Q: Which results are given for B4?
A: binding result [3]: binds; binding result [4]: binds

B5: dBBDu_115 (antibody, IgG1, V domains shown)
VH: QVQLVESGGGLVQPGRSLRLSCAASGFTFSNAWMHWVRQAPGKGLEWVAQIKDKANSYNTYYAPSVKGRFTISRDDSKNSIYLQMNSLKTEDTAVYYCRYVHYGSSYGFLFAGYGVDAWGQGTTVTVSS
VL: DIVMTQSPLSLPVTPGEPASISCRSSQSLVHSNRNTYLHWYQQKPGQAPRLLIYKVSNRFSGVPDRFSGSGSGTDFTLKISRVEAEDVGVYYCGQGTQVPYTFGQGTKLEIK
notes: IgG1 format with GLS3000 light chain
Q: Does B5 bind [5]?
A: binds
